# According to patent US20240382610A1 (TALLAC THERAPEUTICS, published 2024):
# T1: Mouse nectin-4 ECD-6His (TNT-250) (mouse, UniProt Q8R007 31-347)
# T1 construct: entry includes the 6His tag; also called mouse nectin-4-LCD
# T1 sequence: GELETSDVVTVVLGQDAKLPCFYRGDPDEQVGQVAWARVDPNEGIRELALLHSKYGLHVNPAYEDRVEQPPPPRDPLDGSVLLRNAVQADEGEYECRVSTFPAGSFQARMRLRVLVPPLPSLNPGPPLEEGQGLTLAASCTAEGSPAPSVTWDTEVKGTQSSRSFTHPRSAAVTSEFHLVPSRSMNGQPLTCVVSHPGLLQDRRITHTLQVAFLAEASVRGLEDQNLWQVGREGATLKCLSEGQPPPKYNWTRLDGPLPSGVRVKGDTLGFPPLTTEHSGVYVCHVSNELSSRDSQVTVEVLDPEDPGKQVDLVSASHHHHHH
# T2: Cyno nectin-4 ECD-6His (TNT-255) (cynomolgus, UniProt Q96NY8 32-349 (human entry))
# T2 construct: entry includes the 6His tag
# T2 chain: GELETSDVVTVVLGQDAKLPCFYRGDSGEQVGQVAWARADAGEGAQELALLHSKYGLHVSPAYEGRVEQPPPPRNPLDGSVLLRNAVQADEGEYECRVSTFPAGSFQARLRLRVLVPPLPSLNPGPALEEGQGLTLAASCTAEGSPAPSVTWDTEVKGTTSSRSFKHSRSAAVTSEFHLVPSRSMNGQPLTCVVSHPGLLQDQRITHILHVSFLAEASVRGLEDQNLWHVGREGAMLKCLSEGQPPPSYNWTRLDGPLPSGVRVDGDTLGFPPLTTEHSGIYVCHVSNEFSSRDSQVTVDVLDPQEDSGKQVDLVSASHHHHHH
# T3: Human nectin-4-IgV-6His (TNT-252) (human, UniProt Q96NY8 32-147)
# T3 construct: entry includes the 6His tag
# T3 sequence: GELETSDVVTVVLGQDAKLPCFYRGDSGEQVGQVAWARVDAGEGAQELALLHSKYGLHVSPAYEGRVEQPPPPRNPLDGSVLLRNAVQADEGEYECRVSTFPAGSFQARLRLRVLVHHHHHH
# T4: Human nectin-4 ECD-6His (TNT-175) (human, UniProt Q96NY8 32-349)
# T4 construct: the entry holds the extracellular domain with the C-terminal 6His tag
# T4 sequence: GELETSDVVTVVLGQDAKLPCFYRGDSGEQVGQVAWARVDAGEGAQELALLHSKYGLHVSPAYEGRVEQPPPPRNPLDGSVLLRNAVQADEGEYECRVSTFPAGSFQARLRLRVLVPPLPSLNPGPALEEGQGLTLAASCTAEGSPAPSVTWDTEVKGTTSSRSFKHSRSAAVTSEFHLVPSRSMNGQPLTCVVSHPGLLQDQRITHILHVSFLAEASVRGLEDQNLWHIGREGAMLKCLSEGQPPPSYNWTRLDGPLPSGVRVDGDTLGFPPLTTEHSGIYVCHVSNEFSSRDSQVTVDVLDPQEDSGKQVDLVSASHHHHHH
# Experiments:
# Assay in all cases: SPR Biacore 8K, mAb on protein A
# [1] = target: T1, Mouse nectin-4 ECD-6His (TNT-250)
# Method: (§1) The running buffer was 10 mM HEPES, pH 7.4, 150 mM NaCl, 3 mM EDTA, 0.05% (v/v) Surfactant P20 (HBS-EP+). […] The nectin-4 analytes were injected in either single-cycle kinetics or multi-cycle kinetics mode at nominal starting concentrations of 300 nM or 900 nM with 3-fold serial dilutions. Association times were monitored for 120 s, and dissociation times were monitored 1800 s at 30 μL/min flow rate. The surfaces were regenerated with 10 mM glycine at pH1.7 or 75 mM phosphoric acid at pH1.6 for two pulses of 15 s at 30 μL/min flow rate.
# (§2) The data were processed and analyzed with Biacore 8K Evaluation Software Version 3.0.12.15655 (Cytiva, Global Life Sciences Solutions USA LLC, Marlborough, MA). […] The responses from the nearest buffer blank injection were then subtracted from the reference subtracted data (2-1) to yield double-referenced data. These double-reference data were fit to a simple 1:1 Langmuir binding model with mass transport to determine the apparent association (ka) and dissociation rate constants (kd). The apparent equilibrium dissociation constant or affinity constant was then calculated based on their ratio as (KD=kd/ka).
# [2] = target: T2, Cyno nectin-4 ECD-6His (TNT-255)
# Method: as §1, §2
# [3] = target: T3, Human nectin-4-IgV-6His (TNT-252)
# Method: as §1, §2
# [4] = target: T4, Human nectin-4 ECD-6His (TNT-175)
# Method: as §1, §2
Binder,binding result [1],Kd [2] [nM],binding result [3],Kd [4] [nM],Kd [3] [nM],binding result [2],Kd [1] [nM]
"TNT-332 (antibody, V domains shown, human IgG1) VH: QVQLVQSGAEAKKPGASVRVSCKTSGYTFTNYYIHWVRQAPGQGLEWMGIINPTLDSTSYAQKFQDRVTMTRDTSTNTDYMDLSSLRFEDTAVYYCARSAGFDAFDIWGQGTMVTVSS VL: DIQLTQSPSFLSASVGDKVTITCRASQGINSYLAWYQQKPGKAPKLLIYSASTLQGGVPSRFSGSGSGTEFTLTISNLQPADFATYCCQQLNSYPFTFGPGTKVDIKR",no binding (tested: up to 300 or 900 nM analyte),7.2,no binding (tested: up to 300 or 900 nM analyte),7.6,,,
"TNT-333 (antibody, V domains shown, human IgG1) VH: QVQLQESGPGLVKPSETLSLTCTISGGSISSYYWSWIRQPPGKGLEWIGYIFYIGNTNYYPSLKSRVTISVDASKNQFSLKLSSVTAADTAVYYCARSYPYWYFDLWGRGTLVTVSS VL: QSVLTQPPSVSAAPGQKVTISCSGSSSNIGNNYVSWYQQLPGTAPKLLISDNNKRPSGIPDRFSGSKSGTSATLGITGLQTGDEADYYCGTWDSSLSAGVVFGGGTKLTVLG",no binding (tested: up to 300 or 900 nM analyte),7.43,no binding (tested: up to 300 or 900 nM analyte),6.18,,,
"TNT-334 (antibody, V domains shown, human IgG1) VH: EVQLVESGGGLVQPGGSLRLSCAASGFTFSRYWMHWVRQAPGKGLVWVSRINSDGSSSNYADSVKGRFTFSRDNAKNTLYLQMNSLRAEDTAVYFCVRDNWYFDYWGQGTLVTVSS VL: EIVMTQSPATLPVSPGERATLSCRASQSVSINLAWYQQKPGQAPRLLIYGVSTRATGIPARFSGSGSGTEFTLTISGLQSEDFAVYYCQQYNNWPRTFGQGTKVEIKR",no binding (tested: up to 300 or 900 nM analyte),95.3,,71.5,46.3,,
"TNT-335 (antibody, V domains shown, human IgG1) VH: QVQLQESGPGLVKPSETLSLTCTVSGGSISSYYWSWIRQPPGKGLEWIGYIHYSGISNYNPSLKSRVAISLDTSNNHFSLKLTSLTAADTAVYFCARGSYWFDPWGQGTLVTVSS VL: QSVLTQPPSASGTPGQRVTISCSGSSSNIGSDYIYWYQQLPGTAPKLLIYSNHQRPSGVPDRFSGSKSGTSASLAISGLRSEDEADYYCAAWEDSLSGPIFGGGTKLTVLG",no binding (tested: up to 300 or 900 nM analyte),1.28,,1.83,0.985,,
"TNT-336 (antibody, V domains shown, human IgG1) VH: KVQLVESGGGLVQPGGSLRLSCEASGFTFSNYWMHWVRQVPGEGLVWVSRLNNGGTSTRYADSVKSRFTISRDNAKNTLYLQMNSLRAEDTAVYYCVRDWYFDLWGRGTLVTVSS VL: QLVLTQSPSASASLGASVKLTCTLSSGHSFYAIAWHQQQPEKGPRYLMQVNSNGSHNKGDGIPDRFSGSSSGAERYLTISSLQSEDEADYYCQSWDTDIWVFGGGTKLTVLG",no binding (tested: up to 300 or 900 nM analyte),,,111,104,no binding (tested: up to 300 or 900 nM analyte),
"TNT-337 (antibody, V domains shown, human IgG1) VH: EVQLVESGGGLVQPGGSLRLSCAASGFTFSNYDMSWVRQAPGKGLEWVATISSGGSYTYYVDSVKGRFTISRDNAKNSLYLQMNSLRAEDTAVYYCARQELGSYYAMDYWGQGTTVTVSS VL: DIVMTQTPLSLPVTPGEPASISCRSSQSIVHSNANTYLEWYLQKPGQSPQLLIYKVSNRFSGVPDRFSGSGSGTDFTLKISRVEAEDVGVYYCFQGSHVPYTFGGGTKVEIKR",,286,,217,195,,318
